Patent US20240409645A1 (DUALYX, published 2024)

T1: human IL-2 receptor (IL-2Rα/IL-2Rβ/γc) (human, UniProt P01589 22-272; P14784 27-551; P31785 23-369)
T1 sequence 1: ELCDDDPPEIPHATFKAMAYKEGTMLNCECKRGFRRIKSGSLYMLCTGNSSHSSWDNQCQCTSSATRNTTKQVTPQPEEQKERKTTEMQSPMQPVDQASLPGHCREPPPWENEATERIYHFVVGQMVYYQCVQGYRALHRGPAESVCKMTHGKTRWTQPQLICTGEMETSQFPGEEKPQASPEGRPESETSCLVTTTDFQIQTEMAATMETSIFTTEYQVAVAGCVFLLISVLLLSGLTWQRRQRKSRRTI
T1 sequence 2: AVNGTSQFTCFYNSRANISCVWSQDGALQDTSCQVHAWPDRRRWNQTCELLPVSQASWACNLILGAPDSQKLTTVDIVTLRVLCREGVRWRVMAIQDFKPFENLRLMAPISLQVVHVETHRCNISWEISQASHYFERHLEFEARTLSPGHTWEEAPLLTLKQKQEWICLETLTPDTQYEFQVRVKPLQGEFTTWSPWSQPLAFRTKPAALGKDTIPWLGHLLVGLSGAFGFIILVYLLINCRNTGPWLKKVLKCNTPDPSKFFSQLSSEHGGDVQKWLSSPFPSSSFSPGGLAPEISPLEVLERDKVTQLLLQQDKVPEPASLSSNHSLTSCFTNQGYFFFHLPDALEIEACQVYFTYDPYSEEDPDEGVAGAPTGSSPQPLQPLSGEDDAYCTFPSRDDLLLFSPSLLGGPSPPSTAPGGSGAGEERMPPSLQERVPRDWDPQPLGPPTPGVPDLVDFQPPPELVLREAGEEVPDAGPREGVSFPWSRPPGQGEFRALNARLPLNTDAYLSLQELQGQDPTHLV
T1 sequence 3: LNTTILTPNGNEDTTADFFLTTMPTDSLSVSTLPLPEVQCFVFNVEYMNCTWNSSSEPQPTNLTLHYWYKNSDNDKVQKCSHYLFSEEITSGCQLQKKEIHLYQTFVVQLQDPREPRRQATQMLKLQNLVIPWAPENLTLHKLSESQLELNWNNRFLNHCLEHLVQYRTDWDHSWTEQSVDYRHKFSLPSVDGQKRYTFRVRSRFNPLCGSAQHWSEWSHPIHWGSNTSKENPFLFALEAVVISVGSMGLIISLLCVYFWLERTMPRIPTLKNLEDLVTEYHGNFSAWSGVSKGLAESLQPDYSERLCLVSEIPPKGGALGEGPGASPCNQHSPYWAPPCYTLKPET


Biological target: T1, human IL-2 receptor (IL-2Rα/IL-2Rβ/γc)
Assay: cell-based or functional assay

Row | EC50 (nM) pSTAT5, NK, human PBMCs [nM] | EC50 (nM) pSTAT5, Treg, human PBMCs [pM] | Fold Max signal (% pSTAT5+) Treg/NK [fold] | Max signal (% pSTAT5+), NK [% pSTAT5+] | Max signal (% pSTAT5+), Treg [% pSTAT5+] | fold EC50 NK/Treg [fold] | Binder
1 | 0.442 | < 0.1 | 5 | 20 | 96 | > 4420 | DC00044 (other) chain 1: QVQLVESGGGLVQPGGSLRLSCATSGFTFRNNFMSWVRQAPGKGLEWVSTISYGGESTTYAESVKGRFTISRDNAKNTLYLQMNNLKPEDTAVYYCAKATSYDSIRSGSRGQGTQVTVSSDKTHTCPPCPAPEAAGGPSVFLFPPKPKDTLMISRTPEVTCVVVDVSHEDPEVKFNWYVDGVEVHNAKTKPREEQYNSTYRVVSVLTVLHQDWLNGKEYKCKVSNKALGAPIEKTISKAKGQPREPQVYTLPPSRDELTKNQVSLTCLVKGFYPSDIAVEWESNGQPENNYKTTPPVLDSDGSFLLYSKLTVDKSRWQQGNVFSCSVMHEALHNHYTQKSLSLSPGK chain 2: QVQLVESGGGLVQAGGSLTLSCAAPGRTFGTDVVGWFRQAPGKEREFVASISRSGDGIYYDDSVKGRFTISRNNAWNTVNLQMNSLKVEDTAVYYCAAGDGWSTYDYWGQGTQVTVSSGGGGSGGGGSGGGGSEVQLVESGGGLVQTGGSLRLSCAASGGTFSRDAMAWFRQVPGKEREFVALISWSGATTNYADSVKGRFAISRDNGKNTVYLQMNRLKPADTAIYYCAADRRPMGSRSYFEPTEYDDWGQGTQVTVSSGGGGSGGGGSGGGGSQVQLVESGGGLVQPGGSLRLSCATSGFTFRNNFMSWVRQAPGKGLEWVSTISYGGESTTYAESVKGRFTISRDNAKNTLYLQMNNLKPEDTAVYYCAKATSYDSIRSGSRGQGTQVTVSSDKTHTCPPCPAPEAAGGPSVFLFPPKPKDTLMISRTPEVTCVVVDVSHEDPEVKFNWYVDGVEVHNAKTKPREEQYNSTYRVVSVLTVLHQDWLNGKEYKCKVSNKALGAPIEKTISKAKGQPREPQVYTLPPSRDELTKNQVSLTCLVKGFYPSDIAVEWESNGQPENNYKTTPPVLDSDGSFFLYSRLTVDKSRWQQGNVFSCSVMHEALHNHYTQKSLSLSPGK
2 | 0.0425 | 0.529 | 16 | 3 | 54 | 80 | DC00043 (other) chain 1: QVQLVESGGGLVQPGGSLRLSCATSGFTFRNNFMSWVRQAPGKGLEWVSTISYGGESTTYAESVKGRFTISRDNAKNTLYLQMNNLKPEDTAVYYCAKATSYDSIRSGSRGQGTQVTVSSDKTHTCPPCPAPEAAGGPSVFLFPPKPKDTLMISRTPEVTCVVVDVSHEDPEVKFNWYVDGVEVHNAKTKPREEQYNSTYRVVSVLTVLHQDWLNGKEYKCKVSNKALGAPIEKTISKAKGQPREPQVYTLPPSRDELTKNQVSLTCLVKGFYPSDIAVEWESNGQPENNYKTTPPVLDSDGSFLLYSKLTVDKSRWQQGNVFSCSVMHEALHNHYTQKSLSLSPGK chain 2: QVQLVESGGGLVQPGGSLRLSCATSGFTFRNNFMSWVRQAPGKGLEWVSTISYGGESTTYAESVKGRFTISRDNAKNTLYLQMNNLKPEDTAVYYCAKATSYDSIRSGSRGQGTQVTVSSGGGGSGGGGSGGGGSEVQLVESGGGLVQTGGSLRLSCAASGGTFSRDAMAWFRQVPGKEREFVALISWSGATTNYADSVKGRFAISRDNGKNTVYLQMNRLKPADTAIYYCAADRRPMGSRSYFEPTEYDDWGQGTQVTVSSGGGGSGGGGSGGGGSQVQLVESGGGLVQAGGSLTLSCAAPGRTFGTDVVGWFRQAPGKEREFVASISRSGDGIYYDDSVKGRFTISRNNAWNTVNLQMNSLKVEDTAVYYCAAGDGWSTYDYWGQGTQVTVSSGGGGSGGGGSGGGGSDKTHTCPPCPAPEAAGGPSVFLFPPKPKDTLMISRTPEVTCVVVDVSHEDPEVKFNWYVDGVEVHNAKTKPREEQYNSTYRVVSVLTVLHQDWLNGKEYKCKVSNKALGAPIEKTISKAKGQPREPQVYTLPPSRDELTKNQVSLTCLVKGFYPSDIAVEWESNGQPENNYKTTPPVLDSDGSFFLYSRLTVDKSRWQQGNVFSCSVMHEALHNHYTQKSLSLSPGK

Further lines, the binder ahead of its results:

Row | Binder | EC50 (nM) pSTAT5, NK, human PBMCs [nM] | EC50 (nM) pSTAT5, Treg, human PBMCs [pM] | Fold Max signal (% pSTAT5+) Treg/NK [fold] | Max signal (% pSTAT5+), NK [% pSTAT5+] | Max signal (% pSTAT5+), Treg [% pSTAT5+] | fold EC50 NK/Treg [fold]
3 | DC00041 (other) chain 1: QVQLVESGGGLVQPGGSLRLSCATSGFTFRNNFMSWVRQAPGKGLEWVSTISYGGESTTYAESVKGRFTISRDNAKNTLYLQMNNLKPEDTAVYYCAKATSYDSIRSGSRGQGTQVTVSSDKTHTCPPCPAPEAAGGPSVFLFPPKPKDTLMISRTPEVTCVVVDVSHEDPEVKFNWYVDGVEVHNAKTKPREEQYNSTYRVVSVLTVLHQDWLNGKEYKCKVSNKALGAPIEKTISKAKGQPREPQVYTLPPSRDELTKNQVSLTCLVKGFYPSDIAVEWESNGQPENNYKTTPPVLDSDGSFLLYSKLTVDKSRWQQGNVFSCSVMHEALHNHYTQKSLSLSPGK chain 2: QVQLVESGGGLVQPGGSLRLSCATSGFTFRNNFMSWVRQAPGKGLEWVSTISYGGESTTYAESVKGRFTISRDNAKNTLYLQMNNLKPEDTAVYYCAKATSYDSIRSGSRGQGTQVTVSSGGGGSGGGGSGGGGSQVQLVESGGGLVQAGGSLTLSCAAPGRTFGTDVVGWFRQAPGKEREFVASISRSGDGIYYDDSVKGRFTISRNNAWNTVNLQMNSLKVEDTAVYYCAAGDGWSTYDYWGQGTQVTVSSGGGGSGGGGSGGGGSEVQLVESGGGLVQTGGSLRLSCAASGGTFSRDAMAWFRQVPGKEREFVALISWSGATTNYADSVKGRFAISRDNGKNTVYLQMNRLKPADTAIYYCAADRRPMGSRSYFEPTEYDDWGQGTQVTVSSGGGGSGGGGSGGGGSDKTHTCPPCPAPEAAGGPSVFLFPPKPKDTLMISRTPEVTCVVVDVSHEDPEVKFNWYVDGVEVHNAKTKPREEQYNSTYRVVSVLTVLHQDWLNGKEYKCKVSNKALGAPIEKTISKAKGQPREPQVYTLPPSRDELTKNQVSLTCLVKGFYPSDIAVEWESNGQPENNYKTTPPVLDSDGSFFLYSRLTVDKSRWQQGNVFSCSVMHEALHNHYTQKSLSLSPGK | 0.15 | < 0.1 | 5 | 17 | 94 | > 1500
4 | DC00042 (other) chain 1: QVQLVESGGGLVQPGGSLRLSCATSGFTFRNNFMSWVRQAPGKGLEWVSTISYGGESTTYAESVKGRFTISRDNAKNTLYLQMNNLKPEDTAVYYCAKATSYDSIRSGSRGQGTQVTVSSDKTHTCPPCPAPEAAGGPSVFLFPPKPKDTLMISRTPEVTCVVVDVSHEDPEVKFNWYVDGVEVHNAKTKPREEQYNSTYRVVSVLTVLHQDWLNGKEYKCKVSNKALGAPIEKTISKAKGQPREPQVYTLPPSRDELTKNQVSLTCLVKGFYPSDIAVEWESNGQPENNYKTTPPVLDSDGSFLLYSKLTVDKSRWQQGNVFSCSVMHEALHNHYTQKSLSLSPGK chain 2: QVQLVESGGGLVQAGGSLTLSCAAPGRTFGTDVVGWFRQAPGKEREFVASISRSGDGIYYDDSVKGRFTISRNNAWNTVNLQMNSLKVEDTAVYYCAAGDGWSTYDYWGQGTQVTVSSGGGGSGGGGSGGGGSEVQLVESGGGLVQTGGSLRLSCAASGGTFSRDAMAWFRQVPGKEREFVALISWSGATTNYADSVKGRFAISRDNGKNTVYLQMNRLKPADTAIYYCAADRRPMGSRSYFEPTEYDDWGQGTQVTVSSGGGGSGGGGSGGGGSDKTHTCPPCPAPEAAGGPSVFLFPPKPKDTLMISRTPEVTCVVVDVSHEDPEVKFNWYVDGVEVHNAKTKPREEQYNSTYRVVSVLTVLHQDWLNGKEYKCKVSNKALGAPIEKTISKAKGQPREPQVYTLPPSRDELTKNQVSLTCLVKGFYPSDIAVEWESNGQPENNYKTTPPVLDSDGSFFLYSRLTVDKSRWQQGNVFSCSVMHEALHNHYTQKSLSLSPGK | 0.763 | 0.106 | 5 | 21 | 94 | 7210
